Measurements from patent publication US20240141039A1 (AGENUS, published 2024).

T1: wild type full-length cynomolgus monkey CD96 isoform 2 expressed on CHO cells (cynomolgus monkey, UniProt A0A2K5TWV6 22-569)
T1 construct: whole, on cells; also called cynomolgus CD96-CHO cells; cynomolgus CD96-CHO (isoform 2)
T1 sequence: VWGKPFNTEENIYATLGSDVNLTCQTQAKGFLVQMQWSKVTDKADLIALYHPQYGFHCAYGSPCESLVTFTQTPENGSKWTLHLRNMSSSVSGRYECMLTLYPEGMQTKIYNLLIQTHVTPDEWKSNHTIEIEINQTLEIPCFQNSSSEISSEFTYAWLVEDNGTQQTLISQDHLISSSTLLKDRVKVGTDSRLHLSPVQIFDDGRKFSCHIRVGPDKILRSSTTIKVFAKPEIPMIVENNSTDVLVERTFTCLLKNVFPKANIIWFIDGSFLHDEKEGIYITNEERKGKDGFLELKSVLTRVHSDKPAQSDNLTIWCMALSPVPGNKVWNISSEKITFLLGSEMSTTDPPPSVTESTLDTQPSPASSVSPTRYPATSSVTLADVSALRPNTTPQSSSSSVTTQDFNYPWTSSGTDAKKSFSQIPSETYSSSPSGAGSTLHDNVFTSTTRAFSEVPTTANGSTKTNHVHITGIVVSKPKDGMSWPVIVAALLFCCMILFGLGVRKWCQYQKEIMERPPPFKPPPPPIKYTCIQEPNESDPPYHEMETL

T2: wild type full-length human TIGIT expressed on cells (human, UniProt Q495A1 22-244)
T2 construct: whole, on cells; also called human TIGIT-CHO; human TIGIT CHO cells
T2 sequence (looked up): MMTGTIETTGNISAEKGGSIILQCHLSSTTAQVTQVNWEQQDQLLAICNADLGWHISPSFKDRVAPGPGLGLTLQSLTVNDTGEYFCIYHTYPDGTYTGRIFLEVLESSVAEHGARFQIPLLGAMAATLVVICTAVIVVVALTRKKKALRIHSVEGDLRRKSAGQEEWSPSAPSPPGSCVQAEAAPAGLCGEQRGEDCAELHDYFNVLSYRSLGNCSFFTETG


Experiments:
[1] = biological target: T1, wild type full-length cynomolgus monkey …; assay: flow cytometry on CHO cells expressing cynomolgus CD96 isoform 2, PE anti-human IgG Fc detection
[2] = biological target: T2, wild type full-length human TIGIT …; assay: flow cytometry on CHO cells expressing human TIGIT, PE anti-human IgG Fc detection
Experimental: (§1) For the antibody binding assay, a frozen aliquot of human TIGIT-CHO cells was thawed at 37° C. and then transferred to a tube containing DPBS supplemented with 0.5% Bovine Serum Albumin and 0.05% Sodium Azide (FACS Buffer). Cells were centrifuged at 300 g for five minutes. The supernatant was discarded, and cells resuspended in FACS buffer were seeded in a 96-well U-bottom tissue culture plate at a density of 2×10⁵ cells per well in 50 μL. In a separate microplate, a 2× concentrated intermediate stock of each antibody was prepared. Antibodies were serially diluted 1-to-4 in FACS buffer. A total of 11 working dilutions ranging from 60 μg/mL to 0.000057 μg/mL were prepared. Fifty microlitres of each dilution were then transferred to the microplate containing human TIGIT-CHO cells. The cells were then incubated for 45 minutes at 4° C. […] After a 30-minute incubation on ice, the cells were washed twice with cold FACS Buffer, and the cells were analyzed by flow cytometry (BD LSR Fortessa Flow Cytometer). The data were analyzed using the FlowJo software by sequentially gating the FSC-A vs. SSC-A, and SSC-H vs. SSC-A. Mean fluorescence intensity (MFI) values for PE were calculated, and the data were plotted by GraphPad Prism software.

[3] = biological target: T2, wild type full-length human TIGIT …; assay: flow cytometry, blocking of CD155-Fc-PE binding to human TIGIT CHO cells, geomean of 3 experiments
Experimental: A 4× concentrated intermediate stock of each multispecific molecule was prepared in a microplate. Antibodies were serially diluted 1-to-3 in FACS buffer. […] Lastly, 25 μL of human TIGIT-CHO cells, prepared as described above, were added to each well. After a 30-minute incubation on ice, the cells were washed twice with cold FACS Buffer, and the cells were analyzed by flow cytometry (BD LSR Fortessa Flow Cytometer). The data were analyzed using the FlowJo software by sequentially gating on the FSC-A vs. SSC-A and SSC-H vs. SSC-A. Mean fluorescence intensity (MFI) values for PE were calculated, and the data were plotted by GraphPad Prism software and analyzed as described above.

[4] = biological target: T2, wild type full-length human TIGIT …; assay: flow cytometry, human TIGIT CHO cells, geomean of 2 experiments
Experimental: as §1

[5] = biological target: T3, wild type full-length cynomolgus monkey TIGIT expressed on CHO cells (cynomolgus monkey, UniProt A0A7N9I9V4 89-312); assay: flow cytometry, blocking of human CD155-Fc-PE binding to CHO cells expressing cynomolgus TIGIT
T3 construct: whole, on cells; also called cynomolgus TIGIT-CHO cells
T3 sequence (A0A7N9I9V4 entry or part of it): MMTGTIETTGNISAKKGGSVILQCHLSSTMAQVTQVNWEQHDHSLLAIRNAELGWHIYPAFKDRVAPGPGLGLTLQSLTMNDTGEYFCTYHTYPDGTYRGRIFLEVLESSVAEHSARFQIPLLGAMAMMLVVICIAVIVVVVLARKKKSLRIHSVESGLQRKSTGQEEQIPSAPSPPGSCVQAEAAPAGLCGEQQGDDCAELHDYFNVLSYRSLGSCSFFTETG

Binder	EC50 (read off the curve) [1] [µg/mL]	EC50 (read off the curve) [2] [µg/mL]	IC50 [3] [µg/mL]	EC50 [4] [µg/mL]	IC50 (read off the curve) [5] [µg/mL]
anti-TIGIT×CD96 multispecific molecule BA123 (bispecific antibody, human IgG1, kappa, lambda, copies: 1 + 1 + 1 + 1) heavy 1: QVQLVQSGAEVKKPGASVKVSCKASGYTFTSYGISWVRQAPGQGLEWMGWISAYNANTNYAQKLQGRVTMTTDTSTSTAYMELRSLRSDDTAVYYCARSAGVLGGMDVWGRGTLVTVSSASTKGPSVFPLAPSSKSTSGGTAALGCLVKDYFPEPVTVSWNSGALTSGVHTFPAVLQSSGLYSLSSVVTVPSSSLGTQTYICNVNHKPSNTKVDKRVEPKSCDKTHTCPPCPAPELLGGPDVFLFPPKPKDTLMISRTPEVTCVVVDVSHEDPEVKFNWYVDGVEVHNAKTKPREEQYNSTYRVVSVLTVLHQDWLNGKEYKCKVSNKALPAPIEKTISKAKGQPREPQVYTLPPSREEMTKNQVSLSCAVKGFYPSDIAVEWESNGQPENNYKTTPPVLDSDGSFFLVSKLTVDKSRWQQGNVFSCSVMHEALHNHYTQKSLSLSPG light 1: not shown heavy 2: EVQLVQSGAEVKKPGSSVKVSCKASGYTFASYGISWVRQAPGQGLEWMGGITPFFNRVDVAEKFQGRVTITADKSTSTAYIELSSLRSEDTAVYYCARDLRRGGVGDAFDIWGRGTLVTVSSASTKGPSVFPLAPSSKSTSGGTAALGCLVKDYFPEPVTVSWNSGALTSGVHTFPAVLQSSGLYSLSSVVTVPSSSLGTQTYICNVNHKPSNTKVDKRVEPKSCDKTHTCPPCPAPELLGGPDVFLFPPKPKDTLMISRTPEVTCVVVDVSHEDPEVKFNWYVDGVEVHNAKTKPREEQYNSTYRVVSVLTVLHQDWLNGKEYKCKVSNKALPLPEEKTISKAKGQPREPQVYTLPPSREEMTKNQVSLWCLVKGFYPSDIAVEWESNGQPENNYKTTPPVLDSDGSFFLYSKLTVDKSRWQQGNVFSCSVMHEALHNHYTQKSLSLSPG light 2: QSALTQPRSVSGSPGQSVTISCTGTSPDVGSHAYRSWYQQHPGKAPKLMIYEVSYRPSGVSNRFSGSKSGNTASLTISGLQAEDEADYYCSSYPPSSATVFGAGTKLTVLGQPKAAPSVTLFPPSSEELQANKATLVCLISDFYPGAVTVAWKADSSPVKAGVETTTPSKQSNNKYAASSYLSLTPEQWKSHRSYSCQVTHEGSTVEKTVAPTEC	~1				
anti-TIGIT×CD96 multispecific molecule BA127 (bispecific antibody, human IgG1, kappa, lambda, Anti-CD96 arm = BA139, anti-TIGIT arm = BA150; copies: 1 + 1 + 1 + 1) heavy 1: QVQLVQSGAEVKKPGASVKVSCKASGYTFTTYALHWVRQAPGQRLEWMGWINTGSGDTKYSQKFQGRVTITRDTSASTAYMELSSLRSEDTAVYYCARSLGVYYGMDVWGQGTLVTVSSASTKGPSVFPLAPSSKSTSGGTAALGCLVKDYFPEPVTVSWNSGALTSGVHTFPAVLQSSGLYSLSSVVTVPSSSLGTQTYICNVNHKPSNTKVDKRVEPKSCDKTHTCPPCPAPELLGGPDVFLFPPKPKDTLMISRTPEVTCVVVDVSHEDPEVKFNWYVDGVEVHNAKTKPREEQYNSTYRVVSVLTVLHQDWLNGKEYKCKVSNKALPAPIEKTISKAKGQPREPQVYTLPPSREEMTKNQVSLSCAVKGFYPSDIAVEWESNGQPENNYKTTPPVLDSDGSFFLVSKLTVDKSRWQQGNVFSCSVMHEALHNHYTQKSLSLSPG light 1: not shown heavy 2: EVQLVQSGAEVKKPGSSVKVSCKASGYTFASYGISWVRQAPGQGLEWMGGITPFFNRVDVAEKFQGRVTITADKSTSTAYIELSSLRSEDTAVYYCARDLRRGGVGDAFDIWGRGTLVTVSSASTKGPSVFPLAPSSKSTSGGTAALGCLVKDYFPEPVTVSWNSGALTSGVHTFPAVLQSSGLYSLSSVVTVPSSSLGTQTYICNVNHKPSNTKVDKRVEPKSCDKTHTCPPCPAPELLGGPDVFLFPPKPKDTLMISRTPEVTCVVVDVSHEDPEVKFNWYVDGVEVHNAKTKPREEQYNSTYRVVSVLTVLHQDWLNGKEYKCKVSNKALPLPEEKTISKAKGQPREPQVYTLPPSREEMTKNQVSLWCLVKGFYPSDIAVEWESNGQPENNYKTTPPVLDSDGSFFLYSKLTVDKSRWQQGNVFSCSVMHEALHNHYTQKSLSLSPG light 2: QSALTQPRSVSGSPGQSVTISCTGTSPDVGSHAYRSWYQQHPGKAPKLMIYEVSYRPSGVSNRFSGSKSGNTASLTISGLQAEDEADYYCSSYPPSSATVFGAGTKLTVLGQPKAAPSVTLFPPSSEELQANKATLVCLISDFYPGAVTVAWKADSSPVKAGVETTTPSKQSNNKYAASSYLSLTPEQWKSHRSYSCQVTHEGSTVEKTVAPTEC		~0.03	0.164	0.033	~3
